Assay: yeast display, Sf9 membrane polyspecificity reagent, FACS + sequencing; frameworks hold sequencing errors
How it was run: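 A synthetic nanobody library was expressed on Saccharomyces cerevisiae BJ5465 by galactose induction for 36–48 hours. The library was stained for 1 hour at 4 °C with 10% biotinylated, detergent-solubilized Sf9 membrane reagent and enriched with streptavidin microbeads before FACS. Low and high (top ~1%) gates were set on anti-HA fluorescence for expression and streptavidin fluorescence for reagent binding, and each polyreactivity label reflects the gate of origin.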

## QVQLVESGGGLVKAGGSLRLSCAASGGTFNRNAMGWYRQAPAKERELVAAICSSGGRTYYADSVKGRFTISRDNAKNTVYLQMNSLKPEDTAGYYCAAGRKGHGGAYDSWGQGTQVTVSS
  polyreactivity (PSR sort gate): high polyreactivity

## QVQLVESGGGLVQAGGSLRLSCAASGSTVYLNAMGWYRQAPGKDRELVAAITRIGGSTYYADSVKGRFTISRDNAKNTVYLQMNSLKPEDTAVYYCAKDYGPARHDRYGYWGLGTQVTVSS
  polyreactivity (PSR sort gate): low polyreactivity

## QVQLVESGGGLVQAGGSLRLSCAASGSIFVRYATMGWYRQAPGKERELVAAISRSGGSTYYADSVKGRFTISRDNAKNTVYLQMNSLKPEDTAVYYCANVSPSLRASGYDYWGQGTQVTVSS
  polyreactivity (PSR sort gate): high polyreactivity

## QVQLVESGGGVDQAGGSLRLSGAASGSTFHSYTMGWYRQAPGKERELVAAITRSGGSTYYADSGKGRFTISRETAKNTVYLQMNSQKPEDTAVYYCAVPYCRNSRLVDLAYHFYYWGQGTQVTVSS
  polyreactivity (PSR sort gate): high polyreactivity

## QVQLVESGGGLVQAGGSLRLSCAASGRIFGVYAMGWYRQAPGKERELGAALSEGGGSTNYADSVKGRFTISRDNAKNTVYLQMNSLKPEDTAVDYCAATSRTGVRRYYSWGQGTQVTVSS
  polyreactivity (PSR sort gate): low polyreactivity

## QVQLVESGGGLVQAGGSLRLSCAASGRIFFGYAMGWYRQAPGKERELVATITSGGSTYYADSVKGRFTISRDNAKNTVYLQMNSLKPEDTAVYYCASQLHWVFTSGWAYRGSYDYWGQGTQVTVSS
  polyreactivity (PSR sort gate): low polyreactivity

## QVQLVESGGGLVQAGGSLRLSCAASGRIFYSYARGWYRQAPGKERELVAAIDESDGSTYYADSVKGRFTISRDNAKNTVYLQMNSLKPEDTAVYYCAADSLLVLFDYWGQGTQVTVSS
  polyreactivity (PSR sort gate): low polyreactivity

## QVQLVESGGGLVQAGGSLRLSCAASGSIFGTNAMGWYRQAPGKERELVAAIDGGSTTYYADSVKGRFTISRDNAKNTVYLQMNSLKPEDTAVYYCAADGTRYLNYEGYAGYEYWGQGTQVTVSS
  polyreactivity (PSR sort gate): low polyreactivity

## QVQLVESGGGLVQAGGSLRLSCAASGIIFYTYAMGWYRQAPGKEREFVAGIRWSGSSTYYADSVKGRFTISRDNAKNTVYLQMNSLKPEDTAVYYCATGQPYGPLYSLGYGYWGQGTQVTVSS
  polyreactivity (PSR sort gate): high polyreactivity

## QVQLVESGGGLVQAGGSLRLSCAASGSTFYSNAMGCYRQAPGKEREFVAAITGGDVRTYYADSVKGRFTISRDNAKNTVYLPMNSLKPEDTAVYFCATGPYIWPEWSPGFDYWGQGTQVTVSS
  polyreactivity (PSR sort gate): low polyreactivity

## QVQLVESGGGLVQAGGSLRLSCAASGSIFNRNVMGWYRQAPGKERELVAAITWSGASTYYADSVKGRFTISRDNAKNTVYLQMNSLKPEDTAVYYCAARGPSRRRDGSDYWGQGTQVTVSS
  polyreactivity (PSR sort gate): high polyreactivity

## QGQLVESGGGLVQAGGSLRLSCAASGRTLYYYAMGWYRQAPGKERELVAAISGGGRTYYADSVKGRFTISRDNAKKTVDLQMNSLKPEDTAVYYCAARYRKSGLDNYWGQGTQVTVSS
  polyreactivity (PSR sort gate): high polyreactivity

## QVQLVESGGGLVQAGGSLRLSCAASGSIFRAYAMGWYRQAPGKERELVAAISWGGGSTSYADSVKGRFTISRDNAKNTVYLQMNSLNPEDTAVYYCAARFIWPARYYSWGQGTQVTVSS
  polyreactivity (PSR sort gate): high polyreactivity

## QVQLVESGGGLDQAAGSLPLSCAASGLIFPVYAMGWYRQAPGKAREFVASIWRGGTTYYADSVKGRFTISRDNAKNTVYLQMNSLNPEDTAVYYCAARYYPSGLVFPFTKYDYWGQGTQVTVSS
  polyreactivity (PSR sort gate): high polyreactivity

## QVQLVESGGGVGQAGGSLRLSCAASGYTFPDYAMGWYRQAPGKERELFAAIRSGGGTNYADSVKGRFTISRDNAKNTVYLLMNSLQPVDTAVYYSAKEWAGGLYDYWGQGTKVTVSS
  polyreactivity (PSR sort gate): low polyreactivity

## QVHLVESGGGLVQAGGSLRLSCAASGFTFIRYAMGWYRQAPGKEREFVAAISWRVGITYYADSVKGRFTISRDNAKNTVYLQMNSLKPEDTAVYYCARDYRNPPFAYEYWGQGTQVTVSS
  polyreactivity (PSR sort gate): low polyreactivity

## QVQLVESGGGLVQAGGSLRLSCAASGRIFERYAMGWYRQAPGKERELVAAISVSGSGTYYADSVKGRFTISRDNAKNTVYLQMNSLKPEDTAVYYCAADASLLGLFQGYDYWGQGTQVTVSS
  polyreactivity (PSR sort gate): low polyreactivity

## QVQLVESGGGLVQGGGSLRLSCAASGFIFDGNAMGWSRQAPGKEREFVASNSGSGDSTYYADSVKGRFTISRDNAKNTVYLQMNSLKPEDTAVYYCAYEGTPWASGNDYWGQGTQVTVSS
  polyreactivity (PSR sort gate): low polyreactivity

## QVQLVESGGGLVQAGGSLRLSCAASGSTFGGNGMGWYRQAPGKEREFVATITWRSGSTYYADSVKGRFTISRDNAKNSVYLQMNSLKPEDSAVYYCAKYTSSRRNTWYYYWGQGTQVTVSS
  polyreactivity (PSR sort gate): high polyreactivity

## QVQLVESGGGLVQAGGSLRISCAASGFTYSSYAMGWYRQATGKERELVAAISTRGGSTYYADSVKGRFTISRDNAKNTVYLQMNSLKPEDTAVYYCSTGGRGGRRYEYWGQGTQVTVSS
  polyreactivity (PSR sort gate): low polyreactivity

## QVQLVESGGGLVQAGGSLRLSCAASGFIFLNNTLGWYRQAPGKERELVAAISWSGGSTYYADSVKGRFTISRDNAKYSVYLQMNSLKPEDTAVYYCAADVKHTTEYDYWGKGTQVTVSS
  polyreactivity (PSR sort gate): high polyreactivity

## QVQLVESGGGLVQAGGSLRLSCAASGSTFPDNAMGWYRQAPGKERELVATITSGASTYYADSVKGRFTISRDNAKNTVYLQMNSLKPEDTAVYYCAVDVYFYYRHYGYWGQGTQVTVSS
  polyreactivity (PSR sort gate): low polyreactivity

## QVQLVESGGGLVQAGGSLRLSCAASGRTFAYNAMGWYRQAPGKERELVASITSGGSTNYADSVKGRFTISRDNAKNTVYLQKNSLKPEDTAVYYCNKDGKYHRVLYDYWGLGTQVTVSS
  polyreactivity (PSR sort gate): low polyreactivity

## QVQLVESGGGLVQAGGSLRLSCAASGRIFKRNAMGWYRQAPGNERELVAAINWSGGSTYYADSVKGRFTISRDTAKNTVYLQMNSLKPEDTAVYYCAALRVQGDYDYWGQGTQVTVSS
  polyreactivity (PSR sort gate): high polyreactivity

## QVQLVESGGGLVQAGGSLRLSCAASGGIFGYYAMGWYRQAPGKERELVAAINYSGGSTYYADSVKGRFTISRDNAKNTVYLQMNSLKPEDTAVYYCNAVVRDYTFRYYYWGQGTQVTVSS
  polyreactivity (PSR sort gate): low polyreactivity

## QVQLVESGGGLVQAGGSLRLSCAASGSNLYKYAMGWYRPAPGKERELVASITWSDGNTNYADSVKGRFTISRHNAKNTVYLQMNSLKPEDTAVYYCAADWRYILRGDDYWGQGTQVTVSS
  polyreactivity (PSR sort gate): low polyreactivity

## QVQLVESGGGLVQAGGSLRLSCAASGLTFRSYTMGWYRQAPGKERELVAAISSGGSTYYADSVKGRFTISRDNAKHTVYLKMNSRKPEDTAVYYCAAPRGHGKYYSWGQGTQVNVSS
  polyreactivity (PSR sort gate): high polyreactivity

## QVQLLESGGGLVQAGGSVRLSCAASGFTYRYYAMGWYRQEPGKERELVASISFSGTRTYYADSVKGRFTISRDNAKNTVFLQMNSLKPHDTAVDYCNACLYSRYEFDYWGQGSQVTVSS
  polyreactivity (PSR sort gate): high polyreactivity

## QVQLVESGAGLVQAGGSLRLSCAASGSTFNHYAMGWYRPAPGKDRELVAAITWSGDSTYYADSVKGRFTISRDNAKNTVYLQMNSLKPEDTAVYDCNTYRIFGYSPYYAGYDYWGQGTQVTVSS
  polyreactivity (PSR sort gate): low polyreactivity

## QVQLGESGAGLVQAGGSLRLSCAASGRTFYRYAMGWYRQAPGKERELVAAISSSGGRTYYADSVKGRFTISRDNAKNTVYLQMNSLKPEDTAVYYCAKSGYHSLVLWIEDYWGQGTQVTVSS
  polyreactivity (PSR sort gate): low polyreactivity

## QVQLVESGGGLVQAGGSLRLSCAASGSTFGPYAMGWYRQAHGKVRELVAAITESGDSTYYADSVKGRFTISRDNAKNTVYLQMNSLKPEDTAVYYCAAEFYGDKMDYWGQGTQVTVSS
  polyreactivity (PSR sort gate): low polyreactivity

## QVQLVESGGGLVQAGGSLRFSCAASGRIFGGNTMGWYRQAPGKERELVATIRSGDSTYYADSVKGRFTISRDNAKNTVYLQMNSLKPEDTAVYYCGYDYWGQGTQVTVSS
  polyreactivity (PSR sort gate): low polyreactivity

## QDQLVESGGGLVQAGGSLRLSCASSGSTFNIYAMGWYRQAPGKERELVAAITSRGTSTYYADSVKGRFTISRDNAKNTVYLQMNSLKPEDTAVYYCAAEVSGNYYRYNYWGQGTQVTVSS
  polyreactivity (PSR sort gate): high polyreactivity

## QVQLVESGGGLVQAGGSLRLSCAASGSTRRDYVMGWYRQAPGKERELVAAITSRVDDTYYADSVKGRFTISRDNAKNTVYLQLNSLKPEDTAVYYCAADYSVTLRIGGYYWFYAFDYWGQGTQLTVSS
  polyreactivity (PSR sort gate): low polyreactivity

## QVQLEESGGALVQAGGSLRLSCAASGFIFTLYAMGWYRQAPGKEREFVAAISWSDGSTTYADSVKGRFTISRDNAKNTVYLQMNSLNPEDTAVYYCAAVTSSYIRGLVYHFYYWGQGTQVTVSS
  polyreactivity (PSR sort gate): low polyreactivity

## QVQLVESGGGLVQAGGSLRLSCAASGSTFEYYGMGWYRQAPGKERELVATITSGGSTNYADSVKGRFTISRDNAKNTVYLQMNSLKPEDTAVYYCAVDISNSLGGGFGYDYWGQGTQVTVSS
  polyreactivity (PSR sort gate): low polyreactivity

## QVQHVESGGGLVQAGGSLRLSCAASGLIFSKNVMGWYRQARGKEREFVAAISQRGGSTYYADSVKGRFTISRDNAKNTVYVQMNSLKPEDTAVYYCAADNTVSHEDFWGQGTQVTVSS
  polyreactivity (PSR sort gate): high polyreactivity

## QVQLVESGGGLVQAGGSLRLSCAASGIIFGAYAMGLYRQAPGQERVFVAAISRSGSRTYYADSVKGRFTISRDTAKNTVYLQMNSLKPEDTAVYYCAAESPVLYYWGQGTQVTVSS
  polyreactivity (PSR sort gate): high polyreactivity

## QVQLVESGGGLVHAGGSLRLSCAASGFIFWDYAMGWYRQAPGKERELVAAISDSGGDTYYADSVKGRFTISRDNAKNTVNLQMNRLKPEDTAVYYCAAYSPSSRFDRRGYWGQGNQVTVSS
  polyreactivity (PSR sort gate): low polyreactivity

## QVQLVESGGGLVQAGGTLRLSCAASGRISAFNAMGWYRQAPGKERELVAAIHVSGGNTYYADSVKGRFTISRDNAKNTVYLQMNSLKPEDTAVYYCAAERRRWGVDYYYWGQGTQVTVST
  polyreactivity (PSR sort gate): high polyreactivity

## QVQLVESGGGLVQAGGSLRLSCAASGITFYYNDMGWYRQAPGKERELVAAISSGGTTNYADSVKGRFTISRDNAKNTVYLQMNSLKPEDTAVYYCATGYAEPEWYPFVSDYDYWGQGTQVTVSS
  polyreactivity (PSR sort gate): low polyreactivity

## QVQLVESGGCLVQAGGSLRLSCAASGSTFRGNDMGWYRQAPGKEREFVAAITVSGGSTYYADSVKGRFTISRDNAKNTVYLQMNSLKPDDTAVYFCDARYLRYSSKTIQNEDYWGLGTQVTVSS
  polyreactivity (PSR sort gate): high polyreactivity

## QVHLVESGGGLVQAGGSHRLSCAAYGRIFRANAKGWYRQAPGKERELVASITYSGGSTYYADSVKGRFTISRDNAKNTVYLQMNSLKPEDTAVYYCARAGISSGGYYYWGQGTQVTVSS
  polyreactivity (PSR sort gate): low polyreactivity

— the nanobody polyreactivity screen of Harvey et al. (2022)
